The source of these data is patent publication US20210347914A1 (BANYAN BIOMARKERS, published 2021).

The term Kd denotes the equilibrium constant for the complex coming apart. The term koff denotes the first-order rate constant of dissociation. As usually defined, the kon is the second-order rate constant of association.

In the test the target is T1, Polyhistidine-tagged recombinant human GFAP expressed from E. coli (human, UniProt P14136 1-432).
T1 construct: also called His-tagged GFAP; not shown: polyhistidine tag
T1 sequence (P14136 whole entry): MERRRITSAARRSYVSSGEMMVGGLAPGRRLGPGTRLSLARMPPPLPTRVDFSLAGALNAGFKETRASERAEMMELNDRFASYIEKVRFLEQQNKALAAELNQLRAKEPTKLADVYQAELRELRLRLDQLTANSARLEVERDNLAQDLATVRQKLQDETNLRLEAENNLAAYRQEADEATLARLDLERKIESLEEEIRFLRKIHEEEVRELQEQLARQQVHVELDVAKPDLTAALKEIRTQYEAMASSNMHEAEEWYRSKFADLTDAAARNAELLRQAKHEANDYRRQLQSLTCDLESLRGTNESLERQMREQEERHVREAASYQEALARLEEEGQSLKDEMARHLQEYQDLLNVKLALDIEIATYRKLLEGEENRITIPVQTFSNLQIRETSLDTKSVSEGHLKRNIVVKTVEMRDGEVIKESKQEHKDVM
The test is described as follows: BLI (Octet QKe); His-tagged GFAP on anti-Penta-HIS sensor, antibody in solution. The protocol: The rates of association (kₒₙ) and dissociation (koff) of the anti-GFAP antibodies were determined by bio-layer interferometry using an Octet QK^e instrument according to the manufacturer's instructions (ForteBio). See Tobias et al., Biomolecular Binding Kinetic Assays in the Octet Platform, Application Note 14, ForteBio, Div. of Pall Life Sciences, 2013. Polyhistidine-tagged recombinant human GFAP expressed from E. coli was used as the antigen. The antigen was bound at a concentration of 8.3 μg/ml to an anti-Penta-HIS(HIS1K) capture biosensor containing an anti-histidine antibody (ForteBio) for use with the Octet QK^e instrument.

B1: GFAP-19 (antibody, V domains shown)
VH: EVQLVESGGGLVKPGGSPKLSCAASGFAFSSYDMSWVRQTPEKRLEWVAYISSGGGSTYYPDTMKGRFTISRDNAKNTLYLQMSSLKSEDTAMYYCARHYGTYLYYLDYWGQGTTLTVSS
VL: DIVLTQSPATLSVTPGDRVSLSCRASQNISDFLHWYQQKSHESPRLLIKYASQSISGIPSRFSGSGSGSDFTLSINSVEPEDVGVYYCQNGHSFPPTFGGGTKLEIK
notes: also called mouse anti-GFAP antibody GFAP-19
In the case of B1, the Kd turned out to be 0.423 nM, the koff was 6.4e-05 s⁻¹ and the kon is 151000 M⁻¹ s⁻¹.

B2: GFAP-12 (antibody, V domains shown)
VH: QVQLQQSGAELMKPGASVKISCKATGYTFSNYWIEWVKQRPGHGLEWIGEILPGSGSTNYNEKFKGKATFTADTSSNTAYMQLSSLTSEDSAVYYCAIYYGNYAGAMDYWGQGTSVTVSS
VL: DIQMTQSPASLSASVGETVTITCRASENIYSYLAWYQQKQGKSPQLLVYNAKTLAEGVPSRFSGSGSGTQFSLKINSLQPEDFGSYYCQLHYGTPYTFGSGTKLEIK
notes: also called mouse anti-GFAP antibody GFAP-12
Consider B2, for which the Kd was determined as 13.3 nM, the koff came to 0.00024 s⁻¹ and the kon was 18000 M⁻¹ s⁻¹.

B3: GFAP-7 (antibody, V domains shown)
VH: EVQLLQSGTVLARPGASVKMSCKASGYSFTSYWMHWIKQRPGQGLEWIGAIHPGNRDTSYNQKFKDKAKLTAVTSASTAYMELSSLTNEDSAVYFCTREDYWGQGTTLTVSS
VL: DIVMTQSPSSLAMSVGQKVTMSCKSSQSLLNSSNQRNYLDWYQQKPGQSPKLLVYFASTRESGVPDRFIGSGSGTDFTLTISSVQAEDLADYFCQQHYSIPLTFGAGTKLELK
notes: Same variable domains as GFAP-8; also called mouse anti-GFAP antibody GFAP-7
Turning to B3, the Kd was found to be 0.856 nM, the koff is 5.8e-05 s⁻¹ and the kon is 67800 M⁻¹ s⁻¹.

B4: GFAP-4 (antibody, V domains shown)
VH: EVQLLQSGTVLARPGASVKMSCKASGYSFTSYWMHWIKQRPGQGLEWIGAIHPGNRDTSYNQKFKDKAKLTAVTSASTAYMELSSLTNEDSAVYFCTREDYWGQGTTLTVSS
VL: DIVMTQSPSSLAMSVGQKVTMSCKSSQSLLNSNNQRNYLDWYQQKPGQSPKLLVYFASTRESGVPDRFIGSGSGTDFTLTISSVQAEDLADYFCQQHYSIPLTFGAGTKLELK
notes: also called mouse anti-GFAP antibody GFAP-4
In the case of B4, the Kd turned out to be 2.93 nM, the koff worked out at 0.000158 s⁻¹ and the kon amounted to 53700 M⁻¹ s⁻¹.

B5: GFAP-14 (antibody, V domains shown)
VH: DVQLVESGGGSVQPGGSRKLSCAASGFTFSSFGMHWVRQAPEKGLEWVAYISSDSNTVYYADTVKGRFTISRDNPKNTLFLQMTSLRSEDTAMYYCARYAMDYWGQGTSVTVSS
VL: QIVLTQSPALMSASPGEKVTMTCSASSSVSYMYWYQQKPRSSPKPWIYLTSNLASGVPARFSGSGSGTSYSLTISSMEAEDAATYYCQQWSSNPPTFGAGTKLELK
notes: also called mouse anti-GFAP antibody GFAP-14
Turning to B5, the Kd is 0.28 nM, the off-rate constant (koff) is 8.4e-05 s⁻¹ and the kon is 299000 M⁻¹ s⁻¹.

B6: GFAP-11 (antibody, V domains shown)
VH: QIQLVQSGPELKKPGETVKISCKASGYTFTNYGMNWVKQAPGEGLKWMGWINTNIGEPTYAEEFKGRFAFSLEASASTAYLQINNLKNEDTATYFCARWKNYGYFDYWGQGTTLTVSS
VL: QIVLTQSPAIMSASLGERVTMTCTASSSVSSSYLHWYQQKPGSSPKLWIYSTSNLASGVPARFSGSGSGTSYSLTISSLEAEDAATYYCHQYHRSPYTFGGGTKLEIK
notes: also called mouse anti-GFAP antibody GFAP-11
As for B6, the Kd is 0.396 nM, the koff is 0.000125 s⁻¹ and the kon stood at 315000 M⁻¹ s⁻¹.

B7: GFAP-16 (antibody, V domains shown)
VH: QVQLQQSDAELVKPGASVKISCKASGYTFTDHTIHWVKQRPEQGLEWIGYIYPGDGSTKYNEKFKGKATLTADKSSSTVYMQLNSLTSEDSAVYFCARPAPYWNFDVWGAGTTVTVSS
VL: DIQMTQSPSSLSASLGGKVTITCKASQDIKKNIAWYQHKPGKGPRLLIWYTSTLQPGIPSRFSGSGSGRDYSFSISNLEPEDIATYYCLQYDHLRTFGGGTKLEIK
notes: also called mouse anti-GFAP antibody GFAP-16
For the molecule B7, the Kd amounted to 0.273 nM, the koff came out at 4.7e-05 s⁻¹ and the kon worked out at 173000 M⁻¹ s⁻¹.

B8: GFAP-15 (antibody, V domains shown)
VH: DVQLVESGGGLLEPGGSRKLSCAASGFTFSSFGMHWVRQAPEKGLEWVAYISSGSRTIFYADTVKGRFTISRDNPKNTLFLQMTSLRSGDTAMYYCVRGGYGSSFDYWGQGTTLTVSS
VL: DVVMTQTPLSLPVSLGDQASISCRSSQSLVYSNGNIYLHWYLQKPGQSPKLLIYKVSNRFSGVPDRFSGSGSGTDFTLKISRVEAEDLGVYFCSQSTHVPYTFGGGTKLEIK
notes: also called mouse anti-GFAP antibody GFAP-15
In the case of B8, the Kd came out at 0.202 nM, the koff is 0.000231 s⁻¹ and the kon amounted to 1.15e+06 M⁻¹ s⁻¹.

B9: GFAP-2 (antibody, V domains shown)
VH: DVQLVESGGGLVQPGGSRKLSCAASGFTFSSFGMHWVRQAPEKGLEWVAYISSGSSIIYYADTVKGRFTISRDNPKNTLFLQMTSLRSEDTAMYYCTGSDWGSFAYWGQGTLVTVSA
VL: DVVMTQTPLSLPVSLGDQASISCRSSQSLVYSNGNTYLHWYLQKPGQSPKLLIYKVSNRFFGVPDRFSGSGSGTDFTLKISRVEAEDLGVYFCSQSTHVPYTFGGGTKLEIK
notes: also called mouse anti-GFAP antibody GFAP-2
In the case of B9, the Kd came out at 0.0557 nM, the koff stood at 3.3e-05 s⁻¹ and the kon turned out to be 593000 M⁻¹ s⁻¹.

B10: GFAP-13 (antibody, V domains shown)
VH: EVLLQQSGPELVKPGASVKMSCKTSGYTFANYIMHWVKQTPGQGLEWIGFINPYNDYTEYNEKFKGKATLTSDKSSSTAYMEFSGLTSEDSAVYYCSTATFAYWGQGTLVTVSA
VL: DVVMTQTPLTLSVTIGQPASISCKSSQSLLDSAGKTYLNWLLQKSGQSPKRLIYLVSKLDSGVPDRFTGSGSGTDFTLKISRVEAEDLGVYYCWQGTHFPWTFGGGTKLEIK
notes: also called mouse anti-GFAP antibody GFAP-13
B10: the Kd amounted to 0.6 nM, the koff was determined as 0.000194 s⁻¹ and the kon worked out at 324000 M⁻¹ s⁻¹.

B11: GFAP-18 (antibody, V domains shown)
VH: EVILVESGGGLVKPGGSLKVSCAVSGFTFSNFAMSWVRQTPEKRLEWVASISSGGTTYYPDNVKGRFTISRDNARNIMYLQMSSLRSEDTAMYFCARGGLHYFGYWGQGTTLTVSS
VL: DIVMTQSHKFMSTSVGDRVSITCKASQDVNTAVAWYQQKPGQSLKLLIYSASYRYIGVPDRFTGSGSGTDFTFTINSVQAEDLAVYYCHQYYSTPLTFGTGTKLELK
notes: also called mouse anti-GFAP antibody GFAP-18
Take B11: the Kd is 0.0737 nM, the koff was determined as 2.5e-05 s⁻¹ and the kon came out at 344000 M⁻¹ s⁻¹.

B12: GFAP-3 (antibody, V domains shown)
VH: EVKLEESGGGLVQPGGSMKLSCVASGFTFTNYWMSWVRQSPEKGLEWVAQIRLKSDNYATHYAESVKGRFTISRDDSKSSVYLQMNNLRAEDTGIYYCTGGEFLSWFAYWGQGTLVTVSA
VL: DIVMSQSPSSLAVSAGEKVTMSCKSSQSLFNSRTRKNYLAWYQQKPGQSPKLLIYWASTRESGVPDRFTGSGSGTDFTLTISSVQAEDLAVYYCKQSYYLYTFGSGTKLEIK
notes: also called mouse anti-GFAP antibody GFAP-3
As to B12, the Kd came to 12 nM, the koff was 0.000698 s⁻¹ and the kon came out at 58000 M⁻¹ s⁻¹.

B13: GFAP-17 (antibody, V domains shown)
VH: EVKLEESGGGLVQPGGSMKLSCVASGFTFSYYWMSWVRQSPEKGLEWIAEIRLKSNIYATHYAASVKGRFTISRDDSKSSVYLQMNNLRAEDTGIYFCTRFGTGAMDYWGQGTSVTVSS
VL: DIVMSQSPSSLAVSVGEKVTMSCKSSQSLLYRTNQKNYLAWYQQKPGQSPKLLIYWASSRESGVPDRFSGSGSGTDFTLTISSVKAEDLAVYYCQQYYSYPWTFGGGTKLEIK
notes: also called mouse anti-GFAP antibody GFAP-17
Take B13: the Kd is 0.208 nM, the koff was determined as 1.8e-05 s⁻¹ and the kon was 86600 M⁻¹ s⁻¹.

B14: GFAP-1 (antibody, V domains shown)
VH: EVHLQQSGTVLARPGASVKMSCKASGYSFTSYWMHWVKQRPGQGLEWIGAFYPENSDTNYNQKFKGKARLTAVTSANTAYMELNSLTNEDSAVYYCTRPLLFSAYFDFWGQGTTLTVSS
VL: DVLMTQTPLSLPVSLGDQASISCRSSQSIVHSYGNTYLEWYLQKPGLSPKLLIYKVSNRFSGVPDRFSGSGSGTDFTLTISRVEAEDLGVYYCFQGSHVPYTFGGGTKLEIK
notes: also called mouse anti-GFAP antibody GFAP-1
Turning to B14, the Kd is 0.0107 nM, the koff came to 1.7e-06 s⁻¹ and the association rate constant (kon) came out at 162000 M⁻¹ s⁻¹.
